This note sets out measurements from article PMC10907165, “Discovery and structural characterization of the D-box, a conserved TonB motif that couples an inner-membrane motor to outer-membrane transport” (The Journal of Biological Chemistry, 2024).

Ends that are not written are not given here.

Sequences and labels used below:
B3: ExbD periplasmic domain (E. coli ExbD residues 59-141) (domain or fragment)
chain: GRPEKPVYLSVKADNSMFIGNDPVTDETMITALNALTEGKKDTTIFFRADKTVDYETLMKVMDTLHQAGYLKIGLVGEETAKAK
notes: single glycine residue left upstream of Arg-59 after proteolytic removal of the SUMO tag; ExbD, E. coli, periplasmic domain, residues 59-141 (begins at Arg-59); codon-optimised synthetic gene in pETHSUL; the methods and legends say 59-141; Two copies of this domain hold one D-box peptide in the crystals and by ITC; also called ExbD_(59-141); ExbD C-terminal periplasmic domain; source: E. coli …

In series [1] the target is B3. Kind of series: ITC; D-box peptide (1 mM) injected into 100 uM ExbD protein at 288 K; 10 mM MES pH 5.3, 60 mM NaCl; two-state binding model. The note with it: both partners purified. A general note: ITC needs no label: the signal is the heat of the interaction.
Series [2] has as its target B3. Kind of series: fluorescence polarisation; fluorescence anisotropy; 100 nM AF488-labeled peptide, ExbD protein varied; 40 mM Tris pH 8.0, 150 mM NaCl; room temperature. The note with it: both partners purified. Background: In fluorescence polarisation assays a small probe gives low polarisation when free and higher when bound to something large.
Series [3] concerns the molecule itself. Kind of series: crystal structure; ExbD periplasmic domain mixed with the D-box peptide; crystals from ammonium sulfate; orthorhombic and tetragonal forms, about 1.4 A.

B1: D-box peptide (residues 43 to 54 of E. coli TonB) (peptide)
peptide: QPISVTMVTPAD
notes: TonB, E. coli, residues 43-54, holds the D-box motif; The description of the crystal structure numbers the peptide Gln-55 to Thr-63, that is 12 higher than the TonB numbers; also called TonB D-box peptide; source: synthetic peptide (VWR Scientific)
For the molecule B1, in series [1], binding was put at a Kd of 19 ± 1 µM and the “stoichiometry N” value came to 0.5 D-box peptide per ExbD.

B2: AF488-labeled D-box peptide (QPISVTMVTPADC) (peptide)
peptide: QPISVTMVTPADC(AF488 maleimide)
notes: TonB, E. coli, residues 43-54 (D-box peptide); cysteine added at the C-terminus for labelling with the maleimide dye; not a TonB residue; also called fluorescently labeled D-box peptide; fluorophore-labeled D-box peptide; source: synthetic peptide (Biomatik Corporation), labelled with AF488-maleimide, purified on a C18 column
In turn, B2 yielded a Kd in series [2] of 45 ± 9 µM. For B3, the binding result in series [3] was “binds”.

In general, Kd refers to the equilibrium constant for the complex coming apart. As usually defined, the stoichiometry N is the number of molecules, sites or subunits per partner or assembly.
